Laboratory results taken from patent US20220242962A1 (APTEVO RESEARCH AND DEVELOPMENT, published 2022).

What was measured:
[1] = target: T1, Human 4-1BB ECD-AFH (human); assay: SPR (T200), construct captured, monomeric ECD as analyte
T1 construct: entry includes the tags; also called FOB003; HUMAN CD137 ECD-AVI-FLAG-HIS
Protocol: (§1) Mouse anti-human IgG (GE, BR-1008-39) at 25 μg/ml in 10 mM sodium acetate pH 5.0 was immobilized at a density of ˜10,000 response units (RU) onto each flow cell of a CM5 research-grade sensor chip (GE) by standard amine coupling chemistry. Each binding protein at approximately 100 nM in HBS-EP+ with 0.2% BSA buffer was captured in a flow cell with the immobilized anti-human IgG at a flow rate of 10 μL/min for 20 seconds, leaving one flow cell surface unmodified as the reference. Using a single-cycle kinetics mode, five different concentrations of ECD were sequentially injected through each flow cell at 30 μL/min for 300 seconds followed by a 600 second dissociation period. Regeneration was achieved by injection of 3 M MgCl₂ at a flow rate of 30 μL/min for 30 seconds followed by HBS-EP+ with 0.2% BSA buffer stabilization for 1 min.
(§2) Sensorgrams obtained from kinetic SPR measurements were analyzed by the double subtraction method. The signal from the reference flow cell was subtracted from the analyte binding response obtained from flow cells with immobilized or captured ligands. Buffer reference responses were then averaged from multiple injections. The averaged buffer reference responses were then subtracted from analyte binding responses, and the final double-referenced data were analyzed with Biacore T200 Evaluation software (2.0, GE), globally fitting data to derive kinetic parameters. All sensorgrams were fitted using a simple one-to-one binding model.

[2] = target: T2, Human OX40 ECD-AFH (human); assay: as above
T2 construct: ECD'; entry includes the C-terminal tags; also called OXF003; Human OX40 ECD-avi-flag-his
T2 chain: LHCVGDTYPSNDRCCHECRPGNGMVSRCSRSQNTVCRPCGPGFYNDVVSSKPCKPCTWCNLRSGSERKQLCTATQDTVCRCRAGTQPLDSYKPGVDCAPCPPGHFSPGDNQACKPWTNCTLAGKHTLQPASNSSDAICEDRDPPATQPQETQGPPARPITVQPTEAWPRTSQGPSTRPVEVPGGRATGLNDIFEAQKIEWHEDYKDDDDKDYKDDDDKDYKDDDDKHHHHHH
Protocol: as §1, §2

T1 sequence (chain, as listed by the source limits assumed): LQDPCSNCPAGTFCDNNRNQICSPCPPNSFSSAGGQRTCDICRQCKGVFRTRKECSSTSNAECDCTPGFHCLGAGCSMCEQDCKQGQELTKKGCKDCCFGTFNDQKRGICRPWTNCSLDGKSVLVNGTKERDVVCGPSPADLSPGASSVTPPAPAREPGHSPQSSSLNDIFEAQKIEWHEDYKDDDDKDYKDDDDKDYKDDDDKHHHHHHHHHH

B1: FXX01066 (bispecific antibody)
chain: EVQLVQSGAEVKKPGASVKVSCKASGYTFTSYWMNWVRQAPGQGLEWMGNIYPSGGSTNYAQKFQGRVTMTVDTSTSTVYMELSSLRSEDTAVYYCASFSDGYYAYAMDYWGQGTLVTVSSGGGGSGGGGSGGGGSGGGGSEIVMTQSPATLSLSPGERATLSCRASQSVSSYLNWYQQKPGQAPRLLIYYASRRHTGIPARFSGSGSGTDFTLTISSLQPEDFAVYYCQQGYNLPYTFGQGTKVEIKEPKSSDKTHTCPPCPAPPAAAPSVFLFPPKPKDTLMISRTPEVTCVVVDVSHEDPEVKFNWYVDGVEVHNAKTKPREEQYNSTYRVVSVLTVLHQDWLNGKEYKCAVSNKALPAPIEKTISKAKGQPREPQVYTLPPSRDELTKNQVSLTCLVKGFYPSDIAVEWESNGQPENNYKTTPPVLDSDGSFFLYSKLTVDKSRWQQGNVFSCSVMHEALHNHYTQKSLSLSPGGGGSPSSYVLTQPPSVSVAPGQTARITCGGNNIGSKSVNWFQQKPGQAPVLVVYDDSGRPSGIPERFSGSTSGNTATLTISRVEAGDEADYYCQVWDSSSDHVVFGGGTKLTVLGGGGSGGGGSGGGGSGGGGSQVQLVESGGGVVQPGRSLRLSCAASGFTLSYYGMHWVRQAPGKGLEWVAAISHDGSDKYYADSVKGRFTISRDNSKNTLYLQMNSLRAEDTAVYYCSNDQFDPWGQGTLVTVSSR
notes: ADAPTIR scFv-Fc-scFv, anti-4-1BB (VH-VL) N-terminal, anti-OX40 C-terminal, PAA (del) Fc; also called FX01066
[1]
  Kd: 14 nM
  koff: 0.0044 s⁻¹
  kon: 300000 M⁻¹ s⁻¹
[2]
  Kd: 0.4 nM
  koff: 0.00014 s⁻¹
  kon: 380000 M⁻¹ s⁻¹
